Measured values as given in patent US20170313756A1.
Like-named read-outs stand apart in the source and are kept apart here.

Assays:
Assay in all cases: 125I-NDP-MSH competition, HEK293 membranes
[1] = target: melanocortin 1 receptor (MC1R) (UniProt Q01726)
[2] = target: melanocortin 1 receptor (MC1R) (UniProt Q01726); remark: listed apart in the source
[3] = target: melanocortin 1 receptor (MC1R) (UniProt Q01726); remark: listed apart in the source
[4] = target: melanocortin 5 receptor (MC5R) (UniProt P33032)
Sequence of melanocortin 5 receptor (MC5R) (P33032 whole entry): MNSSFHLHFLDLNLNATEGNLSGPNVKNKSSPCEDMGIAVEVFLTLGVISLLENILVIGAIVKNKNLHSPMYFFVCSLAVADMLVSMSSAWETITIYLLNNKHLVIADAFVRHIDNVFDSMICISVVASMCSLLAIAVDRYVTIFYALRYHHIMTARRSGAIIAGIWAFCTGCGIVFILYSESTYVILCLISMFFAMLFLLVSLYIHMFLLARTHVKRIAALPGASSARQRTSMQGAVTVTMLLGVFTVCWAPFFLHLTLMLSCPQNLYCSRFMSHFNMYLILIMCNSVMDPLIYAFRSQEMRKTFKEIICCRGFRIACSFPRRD

Sequence of melanocortin 1 receptor (MC1R) (Q01726 whole entry): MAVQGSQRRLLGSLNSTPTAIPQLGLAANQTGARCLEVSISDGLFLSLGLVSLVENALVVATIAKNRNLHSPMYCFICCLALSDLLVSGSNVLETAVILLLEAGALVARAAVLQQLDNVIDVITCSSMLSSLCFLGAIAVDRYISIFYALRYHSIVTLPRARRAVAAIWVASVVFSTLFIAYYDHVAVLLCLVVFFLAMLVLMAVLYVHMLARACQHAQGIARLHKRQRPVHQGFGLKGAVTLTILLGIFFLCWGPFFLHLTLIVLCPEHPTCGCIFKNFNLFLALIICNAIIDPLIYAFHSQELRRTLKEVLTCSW

retro-inverso α-MSH (peptide)
Ki [1]: 4 nM
Ki [2]: 4.1 nM
Ki [3]: 4.6 nM
Ki [4]: 25000 nM
